Measured values as given in patent US20090111753A1, “Nogo-A Polypeptide Fragments, Variant Nogo Receptor-1 Polypeptides, and Uses Thereof” (Yale University, priority 2004, published 2009).
Where a chain is given by its changes, count along the chain named.

T1: AP-Nogo66 (Homo sapiens, UniProt Q9NQC3)
T1 construct: made in house; NgR mutants: COS-7
T1 sequence (Q9NQC3 1055-1120 limits assumed): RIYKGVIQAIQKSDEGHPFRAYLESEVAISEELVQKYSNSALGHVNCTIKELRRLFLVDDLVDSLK

T2: AP-B4C (Homo sapiens, UniProt Q9NQC3)
T2 construct: a.a; 950-1018 (AmNg B4C); made in house; host or cells: AP ligand: HEK293T conditioned medium; NgR mutants: COS-7
T2 sequence (Q9NQC3 950-1018): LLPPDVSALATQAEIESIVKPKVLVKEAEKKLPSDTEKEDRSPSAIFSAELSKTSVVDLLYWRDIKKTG

T3: AP-Lingo-1 (Homo sapiens, UniProt Q96FE5)
T3 construct: made in house; NgR mutants: COS-7
T3 sequence (Q96FE5 40-538 limits assumed): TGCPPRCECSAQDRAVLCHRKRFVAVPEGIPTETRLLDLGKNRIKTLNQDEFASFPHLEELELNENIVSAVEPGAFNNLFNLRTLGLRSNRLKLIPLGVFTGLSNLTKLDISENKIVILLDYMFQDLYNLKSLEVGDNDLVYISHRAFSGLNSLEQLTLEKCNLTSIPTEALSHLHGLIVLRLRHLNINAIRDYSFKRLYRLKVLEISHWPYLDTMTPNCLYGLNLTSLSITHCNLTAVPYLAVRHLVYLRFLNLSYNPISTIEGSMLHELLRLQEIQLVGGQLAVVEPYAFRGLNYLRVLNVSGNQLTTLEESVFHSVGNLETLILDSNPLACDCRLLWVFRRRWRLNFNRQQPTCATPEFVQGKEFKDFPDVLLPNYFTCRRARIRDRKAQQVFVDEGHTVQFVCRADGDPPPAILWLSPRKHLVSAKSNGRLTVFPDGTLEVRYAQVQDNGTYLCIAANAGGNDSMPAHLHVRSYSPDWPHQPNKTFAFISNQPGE

B1: 114, 117, 139: human NgR1 mutant, listed residues mutated to alanine (protein)
chain: CPGACVCYNEPKVTTSCPQQGLQAVPVGIPAASQRIFLHGNRISHVPAASFRACRNLTILWLHSNVLARIDAAAFTGLALLEQLDLSANAALRSVDPATFHGLGRLHTLHLDACGLQELGPGLFRGLAALQYLYLQDNALQALPDDTFRDLGNLTHLFLHGNRISSVPERAFRGLHSLDRLLLHQNRVAHVHPHAFRDLGRLMTLYLFANNLSALPTEALAPLRALQYLRLNDNPWVCDCRARPLWAWLQKFRGSSSEVPCSLPQRLAGRDLKRLAANDLQGCAVATGPYHPIWTGRATDEEPLGLPKCCQPDAADKASVLEPGRPASAGNALKGRVPPGDSPPGNGSGPRHINDSPFGTLPGSAEPPLTAVRPEGSEPPGFPTSGPRRRPGCSRKNRTRSHCRLGQAGSGGGGTGDSEGSGALPSLTCSLTPLGLALVLWTVLGPC
B2: 216, 218, 220: human NgR1 mutant, listed residues mutated to alanine (protein)
chain: B1 chain with A88D, A91Q, A113R, H190A, H192A, H194A
B3: 237, 256, 259: human NgR1 mutant, listed residues mutated to alanine (protein)
chain: B1 chain with A88D, A91Q, A113R, N211A, R230A, D233A
B4: 117, 119, 120: human NgR1 mutant, listed residues mutated to alanine (protein)
chain: B1 chain with A88D, R93A, S94A, A113R
B5: 256, 259, 284: human NgR1 mutant, listed residues mutated to alanine (protein)
chain: B1 chain with A88D, A91Q, A113R, R230A, D233A, E258A
B6: 220, 223, 224: human NgR1 mutant, listed residues mutated to alanine (protein)
chain: B1 chain with A88D, A91Q, A113R, H194A, R197A, D198A
B7: 61, 108, 131: human NgR1 mutant, listed residues mutated to alanine (protein)
chain: B1 chain with R35A, E82A, A88D, A91Q, R105A, A113R

These molecules were tested on NgR ligands (assay: Binding of alanine substituted NgR mutants to NgR ligands, summary categories). Settings: AP-Nogo66, AP-B4C, AP-B4C66, AP-Lingo-1, AP-OMgp and AP-MAG; compared to wild type NgR.
Text: (§1) To better define how multiple ligands bind to the NgR protein, we examined a series of Ala-substituted NgR for ligand binding activity. NgR mutagenesis was done using the Quick Change Multisite Directed Mutagenesis Kit (Stratagene catalog #200514). Human NgR1 was used as a template. Ala substitutions were generated for each of the charged residues predicted to be solvent accessible at the surface of the ligand binding domain of NgR (Barton, W. A., et al., Embo J. 22:3291-3302 (2003); He, X. L., et al., Neuron 38:177-185 (2003)). We generated mutants in which 1-8 surface residues localized within 5 A of one another were Ala-substituted. Because of the coiling nature of the LRR structure, as residues juxtaposed on the protein surface are commonly separated by approximately 25 residues in the primary structure. In addition to mutations in specific charged surface patches, other mutations were targeted to glycosylation sites and to regions predicted to be involved in ligand binding based on the NgR structure (Barton, W. A., et al., Embo J. 22:3291-3302 (2003); He, X. L., et al., Neuron 38:177-185 (2003)). In addition, a variant corresponding to a human polymorphism was examined (D259N). None of the mutations altered the Leu residues that define the LRR structure itself or the Cys residues critical in the amino and carboxyl terminal capping domains. The vast majority of such Ala surface substitution mutants were expressed as immunoreactive polypeptides with a molecular weight and an expression level indistinguishable from wild type NgR (FIG. 4C and data not shown).
(§2) This collection of 74 individual NgR mutants was interrogated for AP-Nogo-66, AP-Amino-Nogo-B4C, AP-MAG, AP-OMgp, and AP-Lingo-1 binding. AP-Nogo66, AP-MAG, AP-OMGP and AP-Lingo-1 constructs are described elsewhere (Fournier, A. E., et al., Nature 409:341-346 (2001); Liu, B. P., et al., Science 297:1190-1193 (2002); Mi, S., et al., Nat. Neurosci. 7:221-228 (2004); Wang, K. C., et al., Nature 417:941-944 (2002b)). The properties of the NgR mutants fell into one of three major categories (Table II and FIG. 5). A number of Ala substituted NgR polypeptides bound all of the ligands at wild type levels. […] In addition, a significant extent of the concave surface is dispensable for ligand binding.
Alanine substituted NgR mutants were tested for their binding to AP-Nogo66, AP-B4C, AP-B4C66, AP-Lingo-1, AP-OMgp and AP-MAG and they fall into three categories: (1) Mutants that lose binding to all NgR ligands. (2) Mutants that still maintain binding to all NgR ligands. […] The D259N mutant is an asparagine substitution to mimic a human polymorphism.
For B1, the “ligand binding category of NgR mutant (Table II)” value (“ligand binding category” for short) was “Differential binding”.
B2 was tested, and the “ligand binding category” value was “Differential binding”.
In the case of B3, the “ligand binding category” value is reported as “Differential binding”.
With B4 the “ligand binding category” value was “Differential binding”.
For B5, the “ligand binding category” value was “Differential binding”.
With B6 the “ligand binding category” value was “Differential binding”.
In the case of B7, the “ligand binding category” value is reported as “Differential binding”.

The molecules below were run against T1, AP-Nogo66 (assay: Binding of AP-Nogo66 to COS-7 cells expressing NgR mutants). Settings: AP-Ng66 5 nM; level of binding compared to wild type NgR.
Parameters: key: ++: WT level; +: weaker than wild type; trace binding; −: no binding
Experimental: (§3) FIG. 4A. […] Binding of AP or AP fused NgR ligands to COS-7 cells expressing different NgR mutants as indicated. The concentrations of ligands applied were: AP, 30 nM; AP-Ng66, 5 nM; AP-Ng33, 10 nM; AP-B4C, 10 nM; AP-B4C66, 0.5 nM; AP-Lingo-1, 10 nM; AP-OMGP, 10 nM; AP-MAG, 30 nM. These concentrations are close to the binding Kd of these proteins to NgR so that any […] is reflected linearly in staining.
(§4) FIG. 4B. AP binding of NgR ligands to NgR mutants expressed as percentage of wild type NgR. AP after incubation with AP fused ligands, AP bound to COS-7 cells expressing NgR or NgR mutants were stained and measured.
as §1, §2
(§5) Binding of Alanine substituted NgR mutants to NgR ligands were compared to wild type NgR and the levels of binding were categorized as ++ (WT level), + (weaker than wild type), tr (trace binding), − (no binding), N/A (not determined). NgR mutant proteins were also subjected to SDS-PAGE and probed by anti-NgR antibodies. Mutants with expression level similar to WT NgR were labeled as “y”.
With B1 the Ng66 was “+”.
B2 was tested, and the Ng66 was “++”.
In the case of B3, the Ng66 is reported as “tr”.
With B4 the Ng66 was “++”.
In the case of B5, the Ng66 is reported as “+”.
For B6, the Ng66 was “+”.
In the case of B7, the Ng66 is reported as “tr”.

Each molecule was assayed against T2, AP-B4C (assay: Binding of AP-B4C to COS-7 cells expressing NgR mutants). Settings: AP-B4C 10 nM; level of binding compared to wild type NgR.
Parameters: key: ++: WT level; +: weaker than wild type; trace binding; −: no binding
Experimental: as §3, §4, §1, §2, §5
With B1 the B4C was “+”.
For B2, the B4C was “++”.
With B3 the B4C was “tr”.
For B4, the B4C was “++”.
In the case of B5, the B4C is reported as “+”.
With B6 the B4C was “+”.
In the case of B7, the B4C is reported as “+”.

Each molecule was assayed on AP-B4C66 (assay: Binding of AP-B4C66 to COS-7 cells expressing NgR mutants). Settings: AP-B4C66 0.5 nM; level of binding compared to wild type NgR.
Parameters: key: ++: WT level; +: weaker than wild type; trace binding; −: no binding
Experimental: as §3, §4, §1, §2, §5
B1 was tested, and the B4C-66 was “+”.
B2 was tested, and the B4C-66 was “++”.
In the case of B3, the B4C-66 is reported as “+”.
In the case of B4, the B4C-66 is reported as “++”.
B5 was tested, and the B4C-66 was “++”.
B6 was tested, and the B4C-66 was “+”.
For B7, the B4C-66 was “+”.

The molecules below were run against T3, AP-Lingo-1 (assay: Binding of AP-Lingo-1 to COS-7 cells expressing NgR mutants). Settings: AP-Lingo-1 10 nM; level of binding compared to wild type NgR.
Parameters: key: ++: WT level; +: weaker than wild type; trace binding; −: no binding
Experimental: as §3, §4, §1, §2, §5
For B1, the Lingo-1 was “−”.
For B2, the Lingo-1 was “+”.
With B3 the Lingo-1 was “+”.
B4 was tested, and the Lingo-1 was “tr”.
For B5, the Lingo-1 was “++”.
With B6 the Lingo-1 was “−”.
B7 was tested, and the Lingo-1 was “−”.

What follows are molecules tested on AP-OMgp (assay: Binding of AP-OMgp to COS-7 cells expressing NgR mutants). Settings: AP-OMGP 10 nM; level of binding compared to wild type NgR.
Parameters: key: ++: WT level; +: weaker than wild type; trace binding; −: no binding
Experimental: as §3, §4, §1, §2, §5
In the case of B1, the OMgp is reported as “−”.
For B2, the OMgp was “+”.
B3 was tested, and the OMgp was “tr”.
B4 was tested, and the OMgp was “tr”.
With B5 the OMgp was “+”.
In the case of B6, the OMgp is reported as “−”.
For B7, the OMgp was “−”.

The molecules below were run on AP-MAG (assay: Binding of AP-MAG to COS-7 cells expressing NgR mutants). Settings: AP-MAG 30 nM; level of binding compared to wild type NgR.
Parameters: key: ++: WT level; +: weaker than wild type; trace binding; −: no binding
Experimental: as §3, §4, §1, §2, §5
In the case of B1, the MAG is reported as “−”.
B2 was tested, and the MAG was “tr”.
In the case of B3, the MAG is reported as “−”.
With B4 the MAG was “−”.
With B5 the MAG was “−”.
With B6 the MAG was “tr”.
In the case of B7, the MAG is reported as “−”.
